Source: publication PMC5002451
Read-outs that look alike come from different tables or passages of the source.

T1: RIG-I (human, UniProt O95786 1-925)
T1 sequence: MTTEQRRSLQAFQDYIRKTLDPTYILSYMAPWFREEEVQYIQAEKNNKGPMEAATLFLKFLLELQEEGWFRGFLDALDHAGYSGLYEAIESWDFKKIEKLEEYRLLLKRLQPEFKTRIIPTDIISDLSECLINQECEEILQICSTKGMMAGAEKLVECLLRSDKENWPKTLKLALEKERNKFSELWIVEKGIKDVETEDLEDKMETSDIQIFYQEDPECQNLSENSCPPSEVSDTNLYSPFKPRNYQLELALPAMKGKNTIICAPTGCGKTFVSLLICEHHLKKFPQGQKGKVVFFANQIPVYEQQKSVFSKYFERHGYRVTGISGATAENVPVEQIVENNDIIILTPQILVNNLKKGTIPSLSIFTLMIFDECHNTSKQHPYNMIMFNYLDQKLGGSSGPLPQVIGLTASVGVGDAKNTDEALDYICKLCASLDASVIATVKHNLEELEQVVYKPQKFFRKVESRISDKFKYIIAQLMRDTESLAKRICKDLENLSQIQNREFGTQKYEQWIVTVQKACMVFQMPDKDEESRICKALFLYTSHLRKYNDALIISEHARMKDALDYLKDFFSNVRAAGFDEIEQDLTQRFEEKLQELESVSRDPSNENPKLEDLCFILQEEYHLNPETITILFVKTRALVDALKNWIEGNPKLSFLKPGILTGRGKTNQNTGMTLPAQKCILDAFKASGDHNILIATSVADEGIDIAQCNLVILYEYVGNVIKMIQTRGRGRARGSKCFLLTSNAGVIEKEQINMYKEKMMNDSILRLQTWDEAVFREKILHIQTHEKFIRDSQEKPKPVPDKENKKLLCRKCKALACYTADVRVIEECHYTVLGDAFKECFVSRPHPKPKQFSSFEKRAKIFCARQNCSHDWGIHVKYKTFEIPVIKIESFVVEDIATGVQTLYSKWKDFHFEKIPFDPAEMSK


Tests used:
RIG-I [1] = target: T1, RIG-I; assay: EMSA
RIG-I [2] = target: T1, RIG-I; assay: EMSA; remark: listed apart in the source

| Binder | binding result (RIG-I [1]) | binding result (RIG-I [2]) |
| --- | --- | --- |
| 47R/25RI (dsRNA, 5'-OH) RNA 1: GGAAAAUGUAAAUGACAUAGGCGCGCUGAAAGGGAGAAGUGAAAGUG RNA 2: CGCGCCUAUGUCAUUUACAUUUUCC | binds |  |
| 3P-47R/25DI (DNA:RNA, 5'-triphosphate (on 47R, implied by name)) RNA: GGAAAAUGUAAAUGACAUAGGCGCGCUGAAAGGGAGAAGUGAAAGUG DNA: CACTTTCACTTCTCCCTTTCAGCGC |  | binds |
| 3P-47R/25RI (dsRNA, 5'-triphosphate (on 47R, implied by name)) RNA 1: GGAAAAUGUAAAUGACAUAGGCGCGCUGAAAGGGAGAAGUGAAAGUG RNA 2: CGCGCCUAUGUCAUUUACAUUUUCC |  | binds |
